Patent publication US7045576B2, “Adjuvants and copolymer compositions” (Cytrx Corporation, priority 1994, dated 2006)

Tests used:
ovalbumin (OVA) [1] = assay type: in vivo, C57BL/6 mice; conditions: two immunizations with 15 μg of OVA in saline, no adjuvant, 4 weeks
Procedure: The immune responses induced by experimental subunit vaccine formulations based on a prototype immunogen combined with different adjuvants including CRL1005 were evaluated. Ovalbumin (OVA) was selected as to vaccine immunogen since dose levels of OVA for obtaining optimal and suboptimal immune responses had been established previously. […] OVA was administered at a dose of 15 ug/dose in a total volume of 100 ul. This dose of OVA had been established as non-immunogenic unless combined with an adjuvant.
Ninety mice (C57BL/6) were divided into 9 test and control groups of 10 mice per group. The mice were immunized twice with 28 days between immunizations. Vaccines were administered by needle injection subcutaneously (s.c.) in a total volume of 100 μ/dose.
To evaluate antibody responses, 4 weeks after the second immunization blood was collected via the retro-orbital sinus from 6 mice/group and sera was recovered for serological assay.

ovalbumin (OVA) [2] = assay: Serum antibody responses to OVA after s.c., oral or nasal delivery; assay type: in vivo, C57BL/6 mice
Procedure: The utility of the CRL1005 copolymer for use as an oral vaccine adjuvant/delivery system using OVA as the vaccine antigen was evaluated. To ensure immunogenicity of the formulation, C57BLJ6 mice in the positive control group were immunized twice, at ten day intervals, subcutaneously (s.c.) with 25 μg/100 μl dose of OVA+/−1.25% CRL1005 in PBS. Mice immunized orally received 125 μg/500 μl dose of +/−1.25% CRL1005 in bicarbonate buffer, again at 10 day intervals. Mice were also immunized using nasal delivery since dilution or degradation in the stomach was considered to be a possibility. Mice received the same amounts of OVA and CRL1005 used for the s c injections but in a volume of 20 μl. Blood was collected as the source of serum antibodies for testing 14 days after the second immunization.

EG-7.OVA cells = assay: OVA-specific cytotoxic T-lymphocyte (CTL) 51Cr-release assay; assay type: cell-based, C57BL/6 mice; conditions: after culture of spleen cells with irradiated EG-7.OVA; two immunizations
Description: FIG. 12 presents OVA-specific cytotoxic T-lymphocyte (CTL) responses induced in C57BL/6 mice following two immunizations (days 0 and 28) with OVA in saline (left) or formulated in aqueous solution with CRL1005 copolymer adjuvant (right). A standard ^51 chromium (CR)-release CTL assay was used with OVA-transfected EG-7.OVA cells and control EL-4 cells as the targets. Spleen cells were used as the source of precursor CTL, which were induced to mature to functional CTL effector cells, by culture for 6 days with irradiated EG-7.OVA or EL-4 cells. All testing was done in triplicate using a titration of Effector: Target cells, shown as ratios. Data are shown as the Percent Specific Release (Test Release−Spontaneous Release/Maximum Release−Spontaneous Release)×100.
Cytotoxic T-lymphocyte responses (CTL) were measured using a standard in vitro assay and two different cells for stimulator and target cells. The OVA.EG7 cell line was used as both target cells and antigen specific stimulator cells; cells were irradiated when used as stimulator cells. Control target cells were wild-type EL-4 cells, that are not transfected with OVA. Splenic mononuclear cells were used as the effector cells. These cells were assayed after in vitro stimulation to induce precursor CTL maturation to functional CTL effector cells.

[3] = test system: splenic mononuclear cells; assay type: cell-based, C57BL/6 mice; conditions: immunization with OVA alone

Chain of ovalbumin (OVA) (P01012 whole entry): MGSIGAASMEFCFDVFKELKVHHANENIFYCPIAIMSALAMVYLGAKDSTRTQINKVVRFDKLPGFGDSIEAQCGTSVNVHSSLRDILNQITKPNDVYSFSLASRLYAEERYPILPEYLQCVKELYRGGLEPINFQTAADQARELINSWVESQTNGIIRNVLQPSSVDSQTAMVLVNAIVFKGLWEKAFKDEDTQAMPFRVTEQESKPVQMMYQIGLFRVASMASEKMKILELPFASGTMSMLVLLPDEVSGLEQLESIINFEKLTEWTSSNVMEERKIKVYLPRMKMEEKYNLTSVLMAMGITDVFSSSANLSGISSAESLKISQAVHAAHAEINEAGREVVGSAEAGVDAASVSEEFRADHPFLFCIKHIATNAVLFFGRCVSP

B1: OVA: ovalbumin, prototype vaccine immunogen given without adjuvant (protein, UniProt P01012 2-386, looked up)
Ovalbumin: GSIGAASMEFCFDVFKELKVHHANENIFYCPIAIMSALAMVYLGAKDSTRTQINKVVRFDKLPGFGDSIEAQCGTSVNVHSSLRDILNQITKPNDVYSFSLASRLYAEERYPILPEYLQCVKELYRGGLEPINFQTAADQARELINSWVESQTNGIIRNVLQPSSVDSQTAMVLVNAIVFKGLWEKAFKDEDTQAMPFRVTEQESKPVQMMYQIGLFRVASMASEKMKILELPFASGTMSMLVLLPDEVSGLEQLESIINFEKLTEWTSSNVMEERKIKVYLPRMKMEEKYNLTSVLMAMGITDVFSSSANLSGISSAESLKISQAVHAAHAEINEAGREVVGSAEAGVDAASVSEEFRADHPFLFCIKHIATNAVLFFGRCVSP
OVA-specific antibody responses (ovalbumin (OVA) [1]): not induced | serum antibody response to OVA (ovalbumin (OVA) [2]; nasal, 25 μg OVA +/- 1.25% CRL1005 in 20 μl, twice): failed to induce antibody responses | serum antibody response to OVA (ovalbumin (OVA) [2]; oral, 125 μg OVA +/- 1.25% CRL1005 in bicarbonate buffer, twice): failed to induce antibody responses | serum antibody response to OVA (ovalbumin (OVA) [2]; s.c., 25 μg OVA +/- 1.25% CRL1005, twice, 14 days after second immunization): effective | OVA-specific CTL activity (EG-7.OVA cells): not detected | cytokine responses [3]: did not induce measurable cytokine responses
